According to US20180194847A1 (SEOUL NATIONAL UNIVERSITY R AND DB FOUNDATION, published 2018):

Molecular target: T1, recombinant human CD154 protein (human, UniProt P29965 47-261, limits assumed)
T1 construct: This protein was immobilised on the SPR chip; also called human CD154 antigen
T1 sequence: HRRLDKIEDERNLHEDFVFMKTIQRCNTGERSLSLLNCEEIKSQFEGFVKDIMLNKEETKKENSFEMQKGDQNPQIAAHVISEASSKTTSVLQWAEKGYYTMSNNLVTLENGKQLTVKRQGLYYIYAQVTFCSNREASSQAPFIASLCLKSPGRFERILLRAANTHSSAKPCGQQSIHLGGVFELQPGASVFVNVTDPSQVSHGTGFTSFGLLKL
Assay: SPR (Reichert SR7500DC), CD154 immobilised on chip, antibody in flow
Procedure: The binding affinity KD of each of the RD-05 mouse antibody and IgG4 and IgG4 (L115E) RD-05 chimeric antibodies, produced as described above, for human CD154 antigen, was measured using an SPR method by Woojung BSC, Inc. (Suwon, Gyeonggi-do, Korea). Specifically, 17.5 μg/ml of recombinant human CD154 protein in immobilization buffer (10 mM sodium acetate, pH 6.0) was attached to a CMDH gold chip (Cat#13206066, Reichert Technologies, Depew, N.Y., USA) at a density of 2300 RU (resonance unit; 1 RU=1 pg/mm² surface area), after which 3.125 μg/ml of bovine serum albumin was attached at a density of 650 RU. The RD-05 antibody was diluted in PBS at […], 1.25, 2.5, 5, 10, 20, 40, 80, 160, 320, 2560 and 5120 nM. […] Based on the determined values, the KD values were calculated.

Kd: 37 nM
B1: RD-05 mouse antibody (antibody, V domains shown)
VH: DVQLQESGPGLVKPSQSLSLTCTVTGYSITSDYAWNWIRQFPGNKLEWMGYITYSGTTSYNPSLKSRISLTRDTSKNQFFLQLNAVTTEDTATYYCARSPYYGPWYFDVWGAGTTVTVSS
VL: DIVLTQSPASLTVSLGQRATISCKASQSVDYDGDSYLHWYQQKPGQPPKLLIYAASYLESGIPARFSGSGSGTDFTLNIHPVEEEDAATYYCQQSNEDPNTFGGGTKLEIKR
notes: Mouse monoclonal antibody from the hybridoma, kappa light chain; also called mouse RD-05 antibody; anti-human CD154 antibody
